Measurements from the supplement of paper PMC10567573.

B1: GAGE1 (parent)
chain: QPPEMIGPMRPEQFSDEVEPATPE
B2: SPRY1 (parent)
chain: WIHRPGCRCKNSNTVYCKLESCPS

Variants of: B1
Assay: protein stability index of a GFP-peptide fusion (GPS, HEK-293T) (PSI 1-6); higher = more stable
Details: c terminus: a fixed tail appended
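Note: lentivirally expressed fusions sorted by FACS into six bins by GFP to DsRed ratio, PSI derived from sequencing read proportions per bin multiplied by bin number.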

Protein stability index, by site and new letter:
F14: G 5.68 | I 5.28 | H 5.46 | A 5.4 | V 5.48 | S 5.97
E12: I 5.69 | H 5.21 | A 5.33 | R 5.71 | F 5.87
A21: F 5.05 | K 5.32 | T 4.83 | Y 4.08
E17: M 5.16 | D 4.85 | K 5.12 | V 4.96 | I 4.89
Q1: I 4.78 | R 5.04 | K 4.57 | Y 4.8 | C 5.33 | S 4.89 | H 5.06 | V 4.68 | A 4.84
S15: L 4.79 | V 4.73 | P 4.67 | C 5.31 | W 4.8 | R 5.37
P3: V 4.83 | R 5.71 | S 5.26 | T 5.57
E24: V 4.45 | N 5.18 | I 4.56 | G 4.67 | Y 4.57 | F 4.83
M5: V 4.27 | Y 4.99 | C 4.73 | P 5.9 | W 5.54 | F 5.32
E4: K 5.46 | T 5.56 | F 5.62 | L 5.54 | I 5.52
P8: R 5.24 | A 5.5 | F 4.9 | Y 4.92
T22: E 5.2 | F 4.46 | P 5.08 | A 4.6 | H 4.89
P20: W 3.7 | M 4.65 | K 4.79 | F 4.98 | G 5.36 | I 4.96 | S 5.18
G7: M 5.55 | Q 5.69 | K 5.54 | W 5.73 | S 5.68 | I 5.14
Q13: I 5.6 | W 5.36 | D 4.11 | S 5.46 | M 4.96
R10: I 5.24 | F 5.47 | S 5.56 | W 5.34 | H 5.2 | K 4.93 | E 5
I6: W 5.83 | L 5.64 | Q 5.32 | A 5.59
P23: I 4.72 | K 5.1 | H 5 | D 5.28 | G 5.2 | V 4.5 | L 4.9
E19: I 5.05 | P 4.43
D16: M 5.32 | F 5.74 | C 4.96 | G 4.98 | S 5.31 | E 3.25 | A 5.69 | Q 5.6
V18: N 5.32 | E 4.96 | C 4.78 | S 5.44 | R 4.85 | W 5.04 | K 5.12
P2: Q 4.64 | V 4.4 | M 4.59 | R 4.8 | A 4.8
P11: M 4.9 | V 5.7 | G 5.65 | D 5.69 | L 5.37 | A 5.35 | H 5.82 | S 5.6 | N 5.44
M9: F 5.54 | G 5.5 | L 5.31 | E 5.62 | T 5.68 | A 5.28

Variants of: B2
Assay: as above
Details: c terminus: a fixed tail appended

Protein stability index of substitutions, site by site:
C17: E 2.39 | F 2.98 | M 2.21 | K 2.42 | A 1.44 | V 3.78 | L 1.58 | H 2.3 | Q 1.71 | G 2.81 | I 2.46 | P 2.1 | N 1.51 | D 1.99 | Y 1.65 | T 1.65 | S 2.13
S24: R 1.61 | N 2.1 | A 2.25 | Y 3.13 | G 2.1 | F 2.09 | L 2 | C 2.5 | I 2.29 | P 2.16 | Q 2.13 | W 3.62 | M 2.37 | H 2.63 | T 2.1 | K 2.05 | D 3.1 | E 2.52 | V 2.5
K18: N 2.66 | I 1.68 | L 1.8 | A 1.91 | W 1.63 | F 1.74 | H 2.1 | R 2.09 | C 2.72 | S 2.28 | Y 1.73 | M 2.46 | G 2.58 | T 2.55 | Q 2.25 | V 1.7 | D 3.3 | P 2.03
T14: V 1.86 | S 2.59 | L 2.08 | H 1.99 | M 1.97 | I 2.6 | Q 2.87 | N 2.78 | Y 1.84 | K 1.92 | P 1.79 | W 1.85 | G 2.8 | R 1.54
E20: M 1.4 | G 2.21 | V 1.77 | Y 2.61 | N 2.13 | Q 2.12 | A 1.84 | R 2.91 | S 2.77 | H 1.78 | K 2.07 | D 2.26 | P 1.92 | T 2.33 | I 1.5 | F 2.37 | C 2.41 | L 2.06
S21: D 2.13 | Q 2.14 | A 2.13 | M 1.99 | I 2.67 | C 1.8 | N 2.63 | W 2.75 | R 2.17 | K 1.79 | P 2.74 | T 2.17 | V 2.09 | H 2 | E 2.4 | Y 2.04 | L 1.7 | G 2.22 | F 2.56
P23: S 2.9 | D 3.04 | T 1.83 | I 1.32 | L 1.71 | M 1.56 | C 2.43 | A 2.29 | Q 2.41 | W 2.35 | V 1.47 | E 2.03 | F 3.63 | H 2.23 | N 2.43 | Y 1.99 | R 1.93 | K 2.15 | G 2.84
C22: S 2.26 | L 2.03 | K 1.88 | R 3.31 | H 2.01 | G 2.29 | N 1.9 | E 2.02 | F 1.8 | Q 1.98 | I 1.84 | W 1.83 | D 1.98 | Y 2.44 | T 2.07 | M 1.53 | A 3.24 | V 2.52 | P 2.68
L19: H 1.89 | A 3 | P 2.01 | I 1.76 | K 2.46 | D 3.51 | M 2.37 | F 2.06 | W 2.16 | R 2.73 | N 3.33 | G 2.68 | C 3.1 | V 2 | T 2.44 | Q 2.59 | Y 2.49
Y16: C 2.69 | L 2.28 | V 2.91 | A 3.71 | E 3.28 | G 2.75 | Q 2.46 | D 2.91 | H 2.65 | S 2.92 | I 1.87 | P 2.56 | N 3.56 | K 2.05 | F 1.74 | M 2.02 | W 2.68
V15: L 2.34 | H 2.06 | I 2.14 | R 2.67 | Y 1.6 | G 2.69 | D 3.14 | M 1.74 | F 2.37 | Q 2.65 | S 2.35 | P 3.11 | N 2.68 | K 2.18 | A 2.41 | W 2.92 | T 3.03 | E 2.49 | C 2.42
